One molecule from US20080213817A1 (published 2008) can be followed below.

The assay has as its target T1, mitogen-activated protein kinase/ERK kinase kinase 1 (MEKK1) (mouse, UniProt P53349 2-1493).
T1 construct: Endogenous protein co-immunoprecipitated from mouse thymocyte / T cell lysates, not a recombinant construct; also called MEK kinase 1; MAPK/ERK kinase kinase 1
T1 sequence (looked up): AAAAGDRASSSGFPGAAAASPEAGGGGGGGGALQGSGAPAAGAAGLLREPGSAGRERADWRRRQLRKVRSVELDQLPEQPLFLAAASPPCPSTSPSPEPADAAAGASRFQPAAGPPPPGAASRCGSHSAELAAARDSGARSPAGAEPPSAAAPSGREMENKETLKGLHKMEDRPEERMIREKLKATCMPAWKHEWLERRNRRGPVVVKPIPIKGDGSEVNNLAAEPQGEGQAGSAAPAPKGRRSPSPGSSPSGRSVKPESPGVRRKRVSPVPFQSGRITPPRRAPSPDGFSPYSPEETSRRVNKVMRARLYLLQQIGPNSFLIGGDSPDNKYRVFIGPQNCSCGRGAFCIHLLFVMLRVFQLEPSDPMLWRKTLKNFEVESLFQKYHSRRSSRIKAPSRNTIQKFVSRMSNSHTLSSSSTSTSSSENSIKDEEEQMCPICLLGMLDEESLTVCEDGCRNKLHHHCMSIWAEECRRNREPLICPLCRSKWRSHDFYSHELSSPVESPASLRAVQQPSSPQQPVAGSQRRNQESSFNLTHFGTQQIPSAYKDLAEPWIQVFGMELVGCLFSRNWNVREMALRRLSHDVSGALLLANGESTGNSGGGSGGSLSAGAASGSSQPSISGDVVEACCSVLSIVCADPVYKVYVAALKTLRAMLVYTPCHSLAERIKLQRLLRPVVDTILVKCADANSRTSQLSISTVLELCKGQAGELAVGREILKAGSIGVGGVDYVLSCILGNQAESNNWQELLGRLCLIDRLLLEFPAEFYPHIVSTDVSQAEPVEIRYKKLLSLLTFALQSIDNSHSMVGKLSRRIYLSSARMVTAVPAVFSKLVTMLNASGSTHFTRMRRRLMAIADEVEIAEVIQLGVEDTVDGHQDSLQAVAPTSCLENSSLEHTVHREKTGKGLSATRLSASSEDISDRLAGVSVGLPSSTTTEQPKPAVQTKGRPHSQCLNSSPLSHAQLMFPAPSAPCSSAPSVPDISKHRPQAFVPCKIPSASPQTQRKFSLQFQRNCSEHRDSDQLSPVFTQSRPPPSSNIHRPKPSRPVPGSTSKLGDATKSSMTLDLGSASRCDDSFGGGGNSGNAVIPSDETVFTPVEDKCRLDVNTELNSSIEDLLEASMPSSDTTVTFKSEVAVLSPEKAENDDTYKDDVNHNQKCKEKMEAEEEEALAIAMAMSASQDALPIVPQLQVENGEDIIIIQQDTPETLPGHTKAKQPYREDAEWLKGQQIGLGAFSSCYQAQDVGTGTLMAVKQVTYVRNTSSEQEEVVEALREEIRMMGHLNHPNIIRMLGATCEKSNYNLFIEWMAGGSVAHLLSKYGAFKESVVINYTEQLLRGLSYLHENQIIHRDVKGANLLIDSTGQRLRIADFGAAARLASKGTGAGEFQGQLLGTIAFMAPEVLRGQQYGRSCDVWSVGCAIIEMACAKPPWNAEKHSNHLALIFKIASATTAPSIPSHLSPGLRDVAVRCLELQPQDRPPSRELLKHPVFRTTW
As to the kind of experiment: co-immunoprecipitation (summary of the results).

B1: E3 ubiquitin ligase Itch (enzyme)
chain: not shown
notes: Endogenous protein from mouse thymocytes / T cells; also called Itchy E3 ubiquitin protein ligase; AIP4
Turning to B1, the binding result is recorded as “binds”.
